According to paper PMC10448276, “Mechanisms controlling membrane recruitment and activation of the autoinhibited SHIP1 inositol 5-phosphatase” (The Journal of Biological Chemistry, 2023):
Non-standard residues stand in square brackets, D forms with d. No end group written: not given here. pY = N[C@@H](Cc1ccc(OP(=O)(O)O)cc1)C(=O)O

B1: pY-ITIM, phosphotyrosine peptide from the immunoreceptor tyrosine inhibitory motif (ITIM) of the FcγRIIB receptor (peptide)
peptide: CKTEAENTIT[pY]SLIK
modifications: also: N-terminal Cys coupled to maleimide headgroup of MCC-PE lipid in membrane-conjugated experiments
notes: cysteine added to the N terminus for coupling to the maleimide lipid; the tyrosine is phosphorylated; Used in solution (100 μM) or conjugated to supported lipid bilayers with 2% MCC-PE; also called pY peptide; ITIM peptide; source: synthetic peptide (Elim Biopharmaceuticals)
B2: mNG-SHIP1 (FL, 1–1188 aa), full-length human Src homology 2 domain–containing inositol 5-phosphatase 1 (enzyme, UniProt Q92835-2 1-1188, looked up)
chain: MVPCWNHGNITRSKAEELLSRTGKDGSFLVRASESISRAYALCVLYRNCVYTYRILPNEDDKFTVQASEGVSMRFFTKLDQLIEFYKKENMGLVTHLQYPVPLEEEDTGDDPEEDTESVVSPPELPPRNIPLTASSCEAKEVPFSNENPRATETSRPSLSETLFQRLQSMDTSGLPEEHLKAIQDYLSTQLAQDSEFVKTGSSSLPHLKKLTTLLCKELYGEVIRTLPSLESLQRLFDQQLSPGLRPRPQVPGEANPINMVSKLSQLTSLLSSIEDKVKALLHEGPESPHRPSLIPPVTFEVKAESLGIPQKMQLKVDVESGKLIIKKSKDGSEDKFYSHKKILQLIKSQKFLNKLVILVETEKEKILRKEYVFADSKKREGFCQLLQQMKNKHSEQPEPDMITIFIGTWNMGNAPPPKKITSWFLSKGQGKTRDDSADYIPHDIYVIGTQEDPLSEKEWLEILKHSLQEITSVTFKTVAIHTLWNIRIVVLAKPEHENRISHICTDNVKTGIANTLGNKGAVGVSFMFNGTSLGFVNSHLTSGSEKKLRRNQNYMNILRFLALGDKKLSPFNITHRFTHLFWFGDLNYRVDLPTWEAETIIQKIKQQQYADLLSHDQLLTERREQKVFLHFEEEEITFAPTYRFERLTRDKYAYTKQKATGMKYNLPSWCDRVLWKSYPLVHVVCQSYGSTSDIMTSDHSPVFATFEAGVTSQFVSKNGPGTVDSQGQIEFLRCYATLKTKSQTKFYLEFHSSCLESFVKSQEGENEEGSEGELVVKFGETLPKLKPIISDPEYLLDQHILISIKSSDSDESYGEGCIALRLEATETQLPIYTPLTHHGELTGHFQGEIKLQTSQGKTREKLYDFVKTERDESSGPKTLKSLTSHDPMKQWEVTSRAPPCSGSSITEIINPNYMGVGPFGPPMPLHVKQTLSPDQQPTAWSYDQPPKDSPLGPCRGESPPTPPGQPPISPKKFLPSTANRGLPPRTQESRPSDLGKNAGDTLPQEDLPLTKPEMFENPLYGSLSSFPKPAPRKDQESPKMPRKEPPPCPEPGILSPSIVLTKAQEADRGEGPGKQVPAPRLRSFTCSSSAEGRAAGGDKSQGKPKTPVSSQAPVPAKRPIKPSRSEINQQTPPTPTPRPPLPVKSPAVLHLQHSKGRDYRDNTELPHHGKHRPEEGPPGPLGRTAMQ

Columns and labels:
[1] = target: B2; experiment: TIRF microscopy on supported lipid bilayers (bulk membrane recruitment); 5 nM mNG-SHIP1 construct in solution; pY-ITIM peptide covalently conjugated to maleimide lipid in the SLB (96% DOPC, 2% PI(3,4,5)P3, 2% MCC-PE); 23 °C; settings: both partners purified
[2] = target: B1; experiment: cell-based or functional assay

B1
binding result [1]: binds

B2
lipid phosphatase activity of 20 nM FL SHIP1 on SLB (PI(3,4,5)P3 dephosphorylation, Grp1-AF647 sensor, reaction half time) with 100 μM pY-ITIM in solution [2]: ~5 fold
